How the values were obtained:
recombinant LILRB1 [1] = target: T1, recombinant LILRB1 (human, UniProt Q8NHL6 24-461); experiment: ELISA, coated recombinant LILRB1, antibody titration;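 further: serially diluted anti-LILRB1 antibodies incubated 60 min at 37 °C on plates coated with 50 ng/well recombinant protein, TMB colorimetric development read as absorbance at 450 nm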
T1 construct: LILRB1-Fc proteins were also made; also called LILRB1 recombinant proteins
Experimental: ELISA. LILRB1 recombinant proteins (50 ng/well, 100 μL per well) were coated on Corning 96-well ELISA plates at 37° C. for 4 hrs. Plates were blocked for 2 hrs at 37° C. with 5% non-fat milk. After washing with PBST, 100 μL of serial diluted anti-LILRB1 antibodies were added and incubated for 60 min at 37° C. […] Plates were washed again with PBST for another 5 times, then the immunoreactions were developed with TMB substrates (Sigma, Cat #T0440) and stopped by the addition of 2 M H_2SO_4 before the plate was read at 450 nm.

recombinant LILRB1 [2] = target: T1, recombinant LILRB1; experiment: BLI (Octet RED96), antibody on biosensor, recombinant LILRB1 in solution;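 further: Background-subtracted sensorgrams fitted with a one-to-one binding model, KD taken as koff over kon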
Experimental: Following a short baseline in kinetics buffer for 20 s, the loaded biosensors were exposed to solutions of recombinant LILRB1 in a range of concentrations (0-500 nM). After background was subtracted, data was fit to a 1:1 binding model to extract an association rate ($kon$) and dissociation rate ($koff$). The KD was calculated using the ratio $koff/kon$. […] All experiments were performed with shaking at 1,000 rpm. All raw data was processed using ForteBio Octet Data Analysis Software 9.0.

T1 sequence (Q8NHL6 24-461 limits assumed): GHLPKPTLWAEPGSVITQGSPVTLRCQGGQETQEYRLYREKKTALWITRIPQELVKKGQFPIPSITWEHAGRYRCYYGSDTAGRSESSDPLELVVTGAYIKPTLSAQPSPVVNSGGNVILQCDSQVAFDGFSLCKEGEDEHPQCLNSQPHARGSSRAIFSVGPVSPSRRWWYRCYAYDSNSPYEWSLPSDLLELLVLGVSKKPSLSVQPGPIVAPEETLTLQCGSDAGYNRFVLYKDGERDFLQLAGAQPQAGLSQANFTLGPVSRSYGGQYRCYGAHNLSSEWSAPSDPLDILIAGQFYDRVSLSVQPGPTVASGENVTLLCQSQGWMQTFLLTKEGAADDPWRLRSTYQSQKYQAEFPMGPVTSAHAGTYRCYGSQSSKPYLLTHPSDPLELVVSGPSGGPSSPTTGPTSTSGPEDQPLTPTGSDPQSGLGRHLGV

| Binder | EC50 (recombinant LILRB1 [1]) | Kd (recombinant LILRB1 [2]) | koff (recombinant LILRB1 [2]) | kon (recombinant LILRB1 [2]) |
| --- | --- | --- | --- | --- |
| B1-#25 (antibody, V domains shown, recombinant rabbit IgG) VH: EQSVKESGGGLVQPEGSLTLTCKVSGIDFNYYNYYYMCWVRQAPGKGLEWIGCMSTASANIYLASWAKGRFTISEASSTTVTLQMTSLTAADTATYFCAKSHGGDGGYGVVLWGPGTLVTISS VL: ELDLTQTPFSVSAAVGGTVTIKCQASETISNRLAWYQQKPGQPPKLLIYSASTLESGVPSRFKGSGSGTEFTLTISDLECADAATYYCQSIRSSSGIVHPNTFGGGTEVEIK | 0.0132 µg/mL |  |  |  |
| B1-#3 (antibody, V domains shown, recombinant rabbit IgG) VH: QSLEESEGDLVKPEGSLTLTCKASGFDFSSDAMCWVRQAPGKGLEWIGCIYNGDEITDHASWAKGRFTISKTSPTTVTLQMTSLTVADTATYFCARAVYSDGGAGYPYMYGMDLWGPGTLVTVSS VL: ELDMTQTPASVEAAVGGTVTIKCQASQNIYSYLVWYQQKPGQPPKLLISKASTLASGVSSRFKGSGSGTEFTLTINDLECADAATYYCQTNYFSSTSHFGVFTFGGGTELEIK | 0.0119 µg/mL | 0.505 nM | 5.63e-05 s⁻¹ | 112000 M⁻¹ s⁻¹ |
| B1-#38 (antibody, V domains shown, recombinant rabbit IgG) VH: EQSVEESEGGLVQPEGSLTLTCTASGFSFSNDYWICWVRQAPGKGLEWIGCGHIGSFRTTYYASWAKGRFSISKTSSTTVTLQMTSLTGADTATYFCARSPYDDGYGGFTFNLWGPGTLVTISS VL: ELDMTQTPSSVEAAVGGTVTVKCQVSQSIGNAIAWYQQKPGQPPKLLIYKASTLASGVPSRFKGSGSGTEFTLTISDLECADAATYYCQNYYYSNTNSFGGGTEVVVK | 0.181 µg/mL |  |  |  |
| B1-#115 (antibody, V domains shown, recombinant rabbit IgG) VH: EQSVKESGGGLVQPEGSLTLTCTASGFSFSSSYWICWVRQAPGKGLEWIGCIATGTGSTYYANWVNGRFTMSKPSSTTVTLQMTTLTAADTATYFCARGGGYWSFSLWGPGTLVTISS VL: ELVMTQTPSSVEAAVGGTVTNKCQASEDIYSNLAWYQQKPGQPPKLLIYGATTLASGVPSRFKGSGSGTEFTLTISDLECADAATYYCQAESNDVWAFGGGTEVVVK | 0.052 µg/mL |  |  |  |
| B1-#18 (antibody, V domains shown, recombinant rabbit IgG) VH: EQSVKESGGGLVKPGGTLTLTCIVSGFSLSRYAVTWVRQAPGKGPEWIGYIDTSSGNKDYANWVNGRFTISKTSSTTVTLQMTSLTAADTATYFCARGFSMFKLWGPGTLVTISS VL: ELVMTQTPSSVSAAVGGTVTISCQASQSVYNNNNLAWYQQKPGQPPKRLIYSASTLDSGVPSRFSGSGSGTQFTLTISDLECDDAATYYCAGGYTYNINIFGGGTEVEIK | 0.0182 µg/mL |  |  |  |
| B1-#7 (antibody, V domains shown, recombinant rabbit IgG) VH: EQSLEESGGGLVKPGASLTVTCAVSGFSLNSYAITWVRQAPGKGLEYIGYIDTGASITDYASWAKGRFTISKTSSTTVTLEMTSLTDADTATYFCARGFSMFKLWGPGTLVTISS VL: ELDLTQTPSSVSAAVGGTVTISCQASQSVYGNNRLAWYHQKPGQPPKRLIYLASTLDSGVPSRFKGAGSGTQFTLTISDLECDDAATYYCAGGYAGNFNAFGGGTEVEIK | 0.0159 µg/mL |  |  |  |
| B1-#10 (antibody, V domains shown, recombinant rabbit IgG) VH: EQSVEESGGGLVKPEGSLTLTCKASGLDFSSSYWICWVRQAPGKGLEWIACIDTGSSGSTYYASWAKGRFTVSKTSSTTVSLQMTSLTAADTATYFCASTPNSLGYDLWGPGTLVTISS VL: ELDLTQTPASVSAAVGGTVTIKCQASQNIVSNLAWYQQKPGQRPKLLIYYASTLASGVPSRFKGSGSGTEYTLTISDLECADAATYYCQNNAGIYGNYGHGFGGGTELEIK | 0.0209 µg/mL |  |  |  |
| B1-#72-1 (antibody, V domains shown, recombinant rabbit IgG) VH: QSVKESGGGLVQPEGSLALTCKASGIDLSNYWYMCWVRQAPGKGLEWIGCVATDSSRTHYATWAKGRFTVSKTSSTTVTLQMTSLTAADTATYFCARGSGASTNGVWWVMGDGMDLWGPGTLVTISS VL: ELVMTQTPSSVSAAVGGTVTIKCQASPSISTYLSWYQQKPGQPPKRLINRASTLASGVPPRFKGSGAGTQFTLTISDLECADAATYYCQNNYHSGSSNGGGVAFGGGTEVEIK | 0.011 µg/mL | 3.14 nM | 0.000237 s⁻¹ | 75700 M⁻¹ s⁻¹ |
| B1-#110 (antibody, V domains shown, recombinant rabbit IgG) VH: QSLEESGGDLVKPEGSLTLTCTASGFSFSSSYWICWVRQAPGKGLEWIGCIYAGNSANTYYASWAKGRFTISKTSSTTVTLQLTSLTAADTATYFCASRNGGAPDGLNLWGPGTLVTISS VL: ELDLTQTPASVEAAVGGTVTIKCQASLNINSWLAWYQQKPGQPPKLLISYTSSLASGVPSRFKGSGSGTEYTLTINDLECADAATYYCQTTYFGTNGGGFGGGTEVEIK | 0.0178 µg/mL |  |  |  |
| B1-#41-1 (antibody, V domains shown, recombinant rabbit IgG) VH: QSVKESGGDLVKPGASLTLTCTASGFSFSSSYWICWVRQAPGKGLEWIACIYAGSSGSTYYASWAKGRFTISKTSSTTVTLQMTSLTAADTATYFCARSTSGSYGAGLGLWGPGTLVTISS VL: ELDMTQTASPVSGAVGGTVTIKCQASQNIYNNIGWYQQKPGQPPNLLIYGPSYLASGVPSRFKGSRSGTEYTLTISDLECADAATYYCQSDDWMSISPDIVFGGGTEVEIK | 0.0944 µg/mL | 15.8 nM | 0.00506 s⁻¹ | 320000 M⁻¹ s⁻¹ |
| B1-#19 (antibody, V domains shown, recombinant rabbit IgG) VH: EQSVEESGGGLVKPEGSLTLTCKASGLDFSSSYWSCWVRQTPGRGLEWIGCIDVGSSGGSYYASWARGRFTVSKGSSTTVTLQMTSLTAADTATYFCASTTTNVFGYDLWGPGTLVTVSS VL: ELDLTQTPASVSEPVGGTVTIKCQASQNIYNNLAWYQQKPGQPPKLLIYYASTLASGVPPRFSGSGSGTEYTLTISDLECDDAATYYCQNNAGIYGGYGHGFGGGTEVVVK | 0.0196 µg/mL |  |  |  |
| B1-#125 (antibody, V domains shown, recombinant rabbit IgG) VH: EQSLEESGGGLVQPEGSLTLTCTASGFSFTKNYYMCWVRQAPGKGLEWIGCIYAGSTNTFYASWAKGRFTISKASSTTVDLKMTSLTVADTATYFCARDFVSYLNLWGPGTLVTVSS VL: ELDLTQTPSSSSAAVGGTVTINCQASQSVYNKNYLSWFQQKPGQPPKLLIYYASTLASGVPSRFKGSGSGTEFTLTISDVVCDDAATYYCAAYKGVSDDGISFGGGTEVEIK | 0.0076 µg/mL |  |  |  |
| B1-#98 (antibody, V domains shown, recombinant rabbit IgG) VH: EQSLEESGGDLVKPEGSLTLTCTASGFSFSSSYWICWVRQAPGKGLEWIACVATGSGTTDYASWAKGRFTMSKTSSTTVTLQMTSLTVADTATYFCARIGAFYSFRLWGPGTLVTISS VL: ELDLTQTPGSVEAAVGGTVTIKCQAGQSIYNYLSWYQQKPGQPPKLLIYSASTLESGVPPRFSGSGSGTEFTLTISDLECADAATYSCQNNYGIGSNYGPGFGGGTEVEIK | 0.038 µg/mL |  |  |  |
| B1-#76 (antibody, V domains shown, recombinant rabbit IgG) VH: EQSVEESGGGLVQPEGSLTLTCTASGFSFSGSCDMSWVRQAPGKGLEWIACIVLSNGNTYYAGWAQGRFTISKISSTTVTLEMTSLTAADTATYFCARERYPGAFSSGLDLWGQGTLVTVSS VL: ELDLTQTPSPVSAAVGGTVTINCQASQIVANGRLAWYQQKPGQPPKLLIYATSTLASGVPSRFKGSGSGTQFTLTINGVQCDDAATYYCQGAYSSGDVRTFGGGTEVVVK | 0.0284 µg/mL |  |  |  |

Next, values leading:

| EC50 (recombinant LILRB1 [1]) | Kd (recombinant LILRB1 [2]) | koff (recombinant LILRB1 [2]) | kon (recombinant LILRB1 [2]) | Binder |
| --- | --- | --- | --- | --- |
| 0.0109 µg/mL |  |  |  | B1-#224 (antibody, V domains shown, recombinant rabbit IgG) VH: EQSVEESGGGLVQPEGSLTLTCTASGIDFSSGAWICWVRQAPGKGLELIACIFTTSGFTYYASWAKGRFTISKTSSTTVTLQMTSLTAADTATYFCARDIYSYGMDLWGPGTLVTISS VL: ELVLTQTPSSVSEPVGGTVTIKCQASQSISSSYLAWYQQKPGQPPKFLIYSASTLASGVPSRFKGSGSGTEFTLTISDLECADAATYYCQSTYISSSNYGAAFGGGTEVEIK |
| 0.00826 µg/mL |  |  |  | B1-#226 (antibody, V domains shown, recombinant rabbit IgG) VH: QEQLVESGGGLVQPEGSLTLTCTASGFSFSSRQYISWVRRAPGKGLEWIGAIVTVNNKVHYANWAKGRFTISEASSTTVTLQMTSLTAADTATYFCARWRTFGLWGPGTLVTVSS VL: ELVLTQTPSSKSVAVGDTVTINCQASENVYSNNYTSWFQQKPGQPPKQLLYYAAYRASGVPSRFKGSGSGTEFTLSISDVVCDDAATYYCSGHKDYSDDGSTFGGGTEVVVK |
| 0.04 µg/mL |  |  |  | B1-#128 (antibody, V domains shown, recombinant rabbit IgG) VH: RAVGKESGGDLVTLGGSLKLSCKASGIDLSNFYYMCWVRQAPGKGLEWIGCVASDSSRTHYATWPKGRFTISKTSSTTVTLQMTSLTAADTATYFCARGSGASTNGVWWVMGDGMDLWGPGTLVTVSS VL: ELDMTQTPSSVSAAVGGTVTIKCQASQSISSYLSWYQQKPGQPPKRLIYKASTLPSGVPPRFKGSGSGTEFTLTISDLECADAATYYCQNNYHSGSSNGGGFAFGGGTQVEIK |
| 0.151 µg/mL |  |  |  | B1-#196-2 (antibody, V domains shown, recombinant rabbit IgG) VH: QEQLVESGGGLVQPEGSLTLTCTDSGFSFTKNYYMCWVRQAPGKGLEWIGCIYAGSTNTFYASWAKGRFTISKASSTTVDLKMTSLTVADTATYFCARDFVSYLNLWGPGTLVTVSS VL: ELDMTQTPSSTSAAVGGTVTIKCQASQSVYNNNQLSWFQQKPGQPPKRLIYGASTLESGVPSRFSGSGSGTQFTLTISDLECDDAATYYCQGAVSSDYYPFGGGTEVEIK |
| 0.00224 µg/mL | 0.619 nM | 5.59e-05 s⁻¹ | 90300 M⁻¹ s⁻¹ | B1-#176 (antibody, V domains shown, recombinant rabbit IgG) VH: QSLEESEGGLVKPGGTLTLTCTASGFSFSSSYCMCWVRQAPGKGLELIACIYTDSSGATYYASWAKGRFTISKSSSTTITLQMTSLTAADTATYFCARGWDYEDPGYTDTTYFSLWGPGTLVTVSS VL: ELDLTQTPSSVEAAVGGTVTIKCQASQTIYTNLAWYQQKPGQPPNLLIYAASTLASGVSSRFKGSGSGTEFTLTISDLECADAATYYCQSYYGSSTTGNGFGGGTEVEIK |
| 0.00656 µg/mL | 1.37 nM | 0.000262 s⁻¹ | 192000 M⁻¹ s⁻¹ | B1-#173-2 (antibody, V domains shown, recombinant rabbit IgG) VH: QSVEESGGDLVKPGASLTLTCTASGFDFSSNAYLCWVRQAPGKGLEWIGCIYDGTSGDTYYANWAKGRFTISRSSSTTVTLQMTSLTAADTATYFCARDTRSSNYYFNLWGPGTLVTISS VL: ELVLTQTPSSTSAAVGGTVTINCQASQSVDNNKQLSWYQQKPGQPPKQLIYSASKLASGVPSRFKGSGSGTQFTLTISDLECDDAATYYCAGYYYSGSATDAWAFGGATEVEIN |
